Target: T1, human RNF130 (GOLIATH) extracellular domain (human, UniProt Q86XS8 28-194, biotin (BirA biotinylation))
T1 construct: RNF130 (GOLIATH), human, extracellular domain (ECD); also called RNF130 ECD; source: Expi293F, purified (Ni-NTA, size-exclusion chromatography), biotinylated with BirA; not shown: AVI, C-terminal, kept
T1 sequence (looked up): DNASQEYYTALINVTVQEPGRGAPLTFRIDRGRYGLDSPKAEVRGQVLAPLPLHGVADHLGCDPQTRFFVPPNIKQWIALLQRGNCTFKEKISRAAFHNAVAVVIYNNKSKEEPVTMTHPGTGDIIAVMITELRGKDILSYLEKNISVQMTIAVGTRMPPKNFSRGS
Experiment: SPR; Biacore T100; biotinylated ECD (ligand) captured on a streptavidin (SA) series S chip, ~100-200 RU; non-biotinylated VHH as analyte in HBS-P+ buffer, twofold dilutions from 500 nM (RNF128 E2, RNF130 D1) or 1000 nM (RNF43 C8); injection 60 s at 30 ul/min, dissociation 240 s; regeneration 1 x 10 sec glycine pH 2.5; 1:1 Langmuir model or equilibrium
Conditions: both partners purified

B1: RNF130-D1 nanobody (VHH)
VHH: QVQLQESGGGLVQAGGSLRLSCAASGTISFIGYMGWYRQAPGKERELVASIASGTSTYYADSVKGRFTISRDNAKNTVYLQMNSLKPEDTAVYYCAATQYIQDVHRYWGQGTQVTVSS
notes: VHH selected from a synthetic yeast-display nanobody library against the human RNF130 ECD; Non-biotinylated analyte in SPR; source: Expi293F, purified (Ni-NTA, size-exclusion chromatography)
Q: B1 was tested. Which Kd did it give?
A: 6.4 nM

Reference: publication PMC10127277, “Receptor Elimination by E3 Ubiquitin Ligase Recruitment (REULR): A Targeted Protein Degradation Toolbox” (ACS Synthetic Biology, 2023)
